Source: article PMC8881611, “A mechanism of origin licensing control through autoinhibition of S. cerevisiae ORC·DNA·Cdc6” (Nature Communications, 2022)

Columns and labels:
Assay in all cases: pull-down; amylose pulldown, ORC with MBP-tagged Orc4 as bait; 0.5 uM ScORC, 0.5 uM 84 bp ARS1 dsDNA, 1 uM ScCdc6, 10 uM ScMcm7 (titrations 1.5, 5, 10 uM), 2 mM ATPγS; 25 mM HEPES pH 7.5, 300 mM potassium acetate, 10 mM magnesium acetate, 1 mM DTT; on ice; maltose elution, Coomassie-stained SDS-PAGE
Details in all cases: both partners purified
[1] = target: T1, ScORC·DNA·Cdc6 with MBP-tagged ORC holding Orc6 ΔCBN/Δlinker (Orc6Δ1-269), ORC dephosphorylated with λ … (S. cerevisiae, UniProt P54784 1-914; P32833 1-620; P54790 1-616; P54791 1-529; P50874 1-479; P38826 …, ORC treated with λ phosphatase)
T1 construct: Orc1, S. cerevisiae, wild type; Orc2, S. cerevisiae, wild type; Orc3, S. cerevisiae, wild type; Orc4, S. cerevisiae, wild type; Orc5, S. cerevisiae, wild type; Orc6, S. cerevisiae, truncation Orc6Δ1-269 (lacks the N-terminal cyclin box fold and the flexible linker); Cdc6, S. cerevisiae, wild type; ORC dephosphorylated before assembly with DNA, Cdc6 and ATPγS; also called Orc6 ΔCBN/Δlinker, λ …

[2] = target: T2, ScORC·DNA·Cdc6 with MBP-tagged ORC holding Orc6 ΔCBN/Δlinker (Orc6Δ1-269), ORC untreated (S. cerevisiae, UniProt P54784 1-914; P32833 1-620; P54790 1-616; P54791 1-529; P50874 1-479; P38826 …)
T2 construct: Orc1, S. cerevisiae, wild type; Orc2, S. cerevisiae, wild type; Orc3, S. cerevisiae, wild type; Orc4, S. cerevisiae, wild type; Orc5, S. cerevisiae, wild type; Orc6, S. cerevisiae, truncation Orc6Δ1-269 (lacks the N-terminal cyclin box fold and the flexible linker); Cdc6, S. cerevisiae, wild type; also called Orc6^ΔN269; source: MBP-ORC: High5 insect cells, purified (no TEV cleavage); Cdc6: …

[3] = target: T3, ScORC·DNA·Cdc6 with MBP-tagged ORC (full-length Orc6), ORC dephosphorylated with λ phosphatase (S. cerevisiae, UniProt P54784 1-914; P32833 1-620; P54790 1-616; P54791 1-529; P50874 1-479; P38826 …, ORC treated with λ phosphatase | ORC treated with λ phosphatase)
T3 construct: Orc1, S. cerevisiae, wild type; Orc2, S. cerevisiae, wild type; Orc3, S. cerevisiae, wild type; Orc4, S. cerevisiae, wild type; Orc5, S. cerevisiae, wild type; Orc6, S. cerevisiae, wild type; Cdc6, S. cerevisiae, wild type; ORC (10 uM) dephosphorylated with 16.7 units/uL λ phosphatase, 10 min, 30 °C, before assembly with DNA, Cdc6 and ATPγS; also called dephosphorylated MBP-ORC·DNA·Cdc6; source: …

[4] = target: T4, ScORC·DNA·Cdc6 with MBP-tagged ORC holding Orc6 ΔCBN (Orc6Δ1-120), ORC dephosphorylated with λ phosphatase (S. cerevisiae, UniProt P54784 1-914; P32833 1-620; P54790 1-616; P54791 1-529; P50874 1-479; P38826 …, ORC treated with λ phosphatase | ORC treated with λ phosphatase)
T4 construct: Orc1, S. cerevisiae, wild type; Orc2, S. cerevisiae, wild type; Orc3, S. cerevisiae, wild type; Orc4, S. cerevisiae, wild type; Orc5, S. cerevisiae, wild type; Orc6, S. cerevisiae, truncation Orc6Δ1-120 (lacks the N-terminal cyclin box fold); Cdc6, S. cerevisiae, wild type; ORC dephosphorylated before assembly with DNA, Cdc6 and ATPγS; also called Orc6 ΔCBN, λ phosphatase; Orc6^ΔN120; source: …

[5] = target: T5, ScORC·DNA·Cdc6 with MBP-tagged ORC holding Orc6 ΔCBN/Δlinker (Orc6Δ1-269), ORC phosphorylated by CDK (S. cerevisiae, UniProt P54784 1-914; P32833 1-620; P54790 1-616; P54791 1-529; P50874 1-479; P38826 …, ORC treated with CDK; phosphorylated sites not given)
T5 construct: Orc1, S. cerevisiae, wild type; Orc2, S. cerevisiae, wild type; Orc3, S. cerevisiae, wild type; Orc4, S. cerevisiae, wild type; Orc5, S. cerevisiae, wild type; Orc6, S. cerevisiae, truncation Orc6Δ1-269 (lacks the N-terminal cyclin box fold and the flexible linker); Cdc6, S. cerevisiae, wild type; ORC phosphorylated by CDK before assembly with DNA, Cdc6 and ATPγS; also called Orc6 ΔCBN/Δlinker, …

binding result [1]: binds | binding result [2]: binds | binding result [3]: binds | binding result [4]: binds | binding result [5]: binds
B1: S. cerevisiae Mcm7 (ScMcm7) (natural protein, UniProt P38132 1-845, looked up)
chain: MSAALPSIQLPVDYNNLFNEITDFLVTFKQDTLSSDATRNENEDENLDAENIEQHLLEKGPKYMAMLQKVANRELNSVIIDLDDILQYQNEKFLQGTQADDLVSAIQQNANHFTELFCRAIDNNMPLPTKEIDYKDDVLDVILNQRRLRNERMLSDRTNEIRSENLMDTTMDPPSSMNDALREVVEDETELFPPNLTRRYFLYFKPLSQNCARRYRKKAISSKPLSVRQIKGDFLGQLITVRGIITRVSDVKPAVEVIAYTCDQCGYEVFQEVNSRTFTPLSECTSEECSQNQTKGQLFMSTRASKFSAFQECKIQELSQQVPVGHIPRSLNIHVNGTLVRSLSPGDIVDVTGIFLPAPYTGFKALKAGLLTETYLEAQFVRQHKKKFASFSLTSDVEERVMELITSGDVYNRLAKSIAPEIYGNLDVKKALLLLLVGGVDKRVGDGMKIRGDINVCLMGDPGVAKSQLLKAICKISPRGVYTTGKGSSGVGLTAAVMKDPVTDEMILEGGALVLADNGICCIDEFDKMDESDRTAIHEVMEQQTISISKAGINTTLNARTSILAAANPLYGRYNPRLSPLDNINLPAALLSRFDILFLMLDIPSRDDDEKLAEHVTYVHMHNKQPDLDFTPVEPSKMREYIAYAKTKRPVMSEAVNDYVVQAYIRLRQDSKREMDSKFSFGQATPRTLLGIIRLSQALAKLRLADMVDIDDVEEALRLVRVSKESLYQETNKSKEDESPTTKIFTIIKKMLQETGKNTLSYENIVKTVRLRGFTMLQLSNCIQEYSYLNVWHLINEGNTLKFVDDGTMDTDQEDSLVSTPKLAPQTTASANVSAQDSDIDLQDA
notes: Mcm7, S. cerevisiae; migrates as a doublet on SDS-PAGE; source: E. coli BL21 RIL, purified (HisTrap, amylose, TEV cleavage, HisTrap, gel filtration); not shown: His6, N-terminal, cleaved; MBP, N-terminal, cleaved
